Experimental data taken from patent publication US11634497B2, “Anti-CCR7 antibody drug conjugates” (NOVARTIS AG, priority 2017, dated 2023).

Key:
Type in all cases: cell-based
DEL = test: ADC cell viability assay (CellTiter-Glo, four days); settings: DEL (ALCL); CCR7 receptor levels ~100,000; Table 19
Protocol: (§1) Cytotoxic effects after binding of directly conjugated antibodies (ADCs) with various payloads and their internalization into CCR7(+) cells were studied by assessing cell viability after four days of treatment. Three fold dilutions of the ADCs were added to 384-well bottom white plates in triplicates ([…]). […] Cells were harvested (adherent cells were detached with Accutase) and resuspended to approximately 2×10^4cells/ml. Cells were added to 384-well plates on top of the antibody (20 μl/well). The plates were incubated for four days at 37° C. and 5% CO2. Subsequently, 20 μl/well of CellTiter-Glo solution (CellTiter-Glo® Luminescent Cell Viability Assay; Promega, #G7571) was prepared and added to the cells. Cell viability was determined by the luminescence signal, which was measured after 10 min of incubation at 22° C. and 400 rpm with the Envision reader. IC50 values were calculated using the Graphpad Prism software.

KE97 = test: as above; settings: KE97 (Multiple Myeloma); CCR7 receptor levels ~100,000; Table 19
Protocol: as §1

CML-T1 = test: as above; settings: CML-T1 (T cell leukemia); CCR7 receptor levels ~29,000
Protocol: as §1
(§2) To assess the ADCs for target-specificity and receptor-level dependency, ADC activity was tested across cell lines with different CCR7 receptor levels. […] Cell lines were chosen based on similar sensitivity to payload.

DND-41 = test: as above; settings: DND-41 (T cell leukemia); CCR7 receptor levels 1,700
Protocol: as §1, §2

SR786 = test: as above; settings: SR786 (Anaplastic large T cell lymphoma); CCR7 receptor levels ~28,000
Protocol: as §1, §2

[1] = tested on: CCR7 and CD20 expressing JVM2 cells; test: surrogate ADCC reporter assay; settings: JVM2 target cells and Jurkat-V158 effector cells
Protocol: Capacity of candidate antibodies to mediate ADCC was assessed using a surrogate ADCC reporter assay. CCR7 and CD20 expressing JVM2 cells were used as target cells. JVM2 cells were washed and re-suspended at 8×10^4 cells/ml cells/ml. Effector cells in this assay were a Jurkat cell line stably expressing CD16V158 and an NFAT dependent luciferase reporter (Jurkat-V158); expression of luciferase is a surrogate for canonical ADCC signaling through CD16. Briefly, Jurkat-V158 cells grown in suspension were spun down to remove spent media, the pellet was resuspended in assay media and adjusted to 1.6x10^6 cells/ml cells/mL. Mix equal volumes of effector and target cells to make a master mix of cells yielding a target to effector cell ratio of 1:5 or 1:20. A titration of antibody was diluted in assay media with a final top concentration of 50 ug/mL in the assay well. 12.5 uL of Ab solution was added to a 384 well round bottom plate and then 12.5 ul of the master cell mix was added. Antibody and cells were mixed well by pipetting and incubated for 4 hours at 37° C. in 5% CO2. Following incubation, 15 uL of Bright Glo substrate (Promega #G7572) was added to each well and shaken for 5 min at RT at 1050 rpm. Luminescent signal was read on the Envision plate reader (Perkin Elmer).

[2] = target: T1, hCCR7 (CHO-flpin-hCCR7 cells) (Homo sapiens, UniProt P32248); test: β-Arrestin assay (PathHunter), antagonistic mode; settings: parental anti-CCR7 antibodies; hCCL19 as ligand; FIGS. 4B, 4C
T1 construct: host or cells: CHO (CHO-flpin), doxycycline-induced
T1 sequence (P32248 25-378): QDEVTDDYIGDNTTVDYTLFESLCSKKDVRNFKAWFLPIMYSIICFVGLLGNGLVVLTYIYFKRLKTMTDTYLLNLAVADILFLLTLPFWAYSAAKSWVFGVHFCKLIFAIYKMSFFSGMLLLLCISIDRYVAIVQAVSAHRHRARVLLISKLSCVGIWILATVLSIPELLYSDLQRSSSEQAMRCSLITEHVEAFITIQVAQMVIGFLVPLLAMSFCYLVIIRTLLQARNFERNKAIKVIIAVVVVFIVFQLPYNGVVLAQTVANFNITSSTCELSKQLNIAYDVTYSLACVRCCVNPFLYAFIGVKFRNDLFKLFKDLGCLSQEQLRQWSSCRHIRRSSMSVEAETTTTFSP
Protocol: To determine functionality of the anti-CCR7 antibodies, the β-Arrestin assay was performed using the PathHunter Flash Detection Kit from DiscoverX (#93-0247) either in agonistic mode for assessment of agonistic function or antagonistic mode for assessment of antagonistic function.
In the antagonistic mode, CHO-flpin-hCCR7 cells were seeded as described above. The next day, a 6× working solution (0.5 μM×6=3.0 μM) in 1× assay buffer was made for each test antibody or positive control MAB197 (R&D reference antibody; ligand antagonist) or negative control hIgG. 5 μl of the 6× working solution of antibodies or controls were added to each well, briefly spun down, and incubated at 37° C./5% CO2 for 30 min. During incubation, serial dilutions of a 6× working solution in 1× assay buffer were made for hCCL19. Following incubation, 5 μl of the 6× working solution of hCCL19 were added to each well, briefly spun down, and incubated at 37° C./5% CO2 for 90 min. Following incubation, 25 μl of detection reagent were added to each well, incubated at room temperature in the dark while shaking for 20 min. Then, the luminescence signal for enzyme activity was measured on the Envision machine and analyzed in Excel.

B1: 674J13.CysMab.DAPA.AURIX2 (conjugate)
heavy: DVQLQESGPGLVKPSQTLSLTCTVSGYSITSGYSWHWIRQHPGKGLEWMAHIHSSGSTNYNPSLKSRITISRDTSKNQFSLKLSSVTAADTAVYYCARGGVQAFAYWGQGTLVTVSSASTKGPSVFPLAPSSKSTSGGTAALGCLVKDYFPCPVTVSWNSGALTSGVHTFPAVLQSSGLYSLSSVVTVPSSSLGTQTYICNVNHKPSNTKVDKRVEPKSCDKTHTCPPCPAPELLGGPSVFLFPPKPKDTLMISRTPEVTCVVVAVSHEDPEVKFNWYVDGVEVHNAKTKPREEQYNSTYRVVSVLTVLHQDWLNGKEYKCKVSNKALAAPIEKTISKAKGQPREPQVYTLPPSREEMTKNQVSLTCLVKGFYPCDIAVEWESNGQPENNYKTTPPVLDSDGSFFLYSKLTVDKSRWQQGNVFSCSVMHEALHNHYTQKSLSLSPGK
light: EIVLTQSPATLSASPGERVTMSCSASSSVIYMHWYQQKPGQAPRRWIYDTSKLASGVPARFSGSGSGTDYTLTISSMEPEDAAVYYCQQWSSNPLTFGQGTKLEIKRTVAAPSVFIFPPSDEQLKSGTASVVCLLNNFYPREAKVQWKVDNALQSGNSQESVTEQDSKDSTYSLSSTLTLSKADYEKHKVYACEVTHQGLSSPVTKSFNRGEC
DEL
  AMAX: (>95% AMAX)
KE97
  AMAX: (>95% AMAX)
CML-T1
  AMAX: (60% AMAX)
DND-41
  AMAX: <20% AMAX
SR786
  AMAX: (90% AMAX)

B2: 121G12 humanized CysMab: humanized anti-CCR7 IgG1 antibody with cysteine mutations, wild type Fc (antibody, V domains shown)
VH: EVQLVESGGGLVKPGGSLRLSCAASGFTFSTYAMSWVRQAPGKGLEWVATISDAGSYSYYPDNVKGRFTISRDNAKNSLYLQMNSLRAEDTAVYYCARRGSRYEEYYVMDYWGQGTTVTVSS
VL: EIVLTQSPATLSVSPGERVTLSCRASQSISNNLHWYQQKPGQAPRLLIKYASQSISGIPARFSGSGSGTDFTLTISSVEPEDFGVYFCQQSSSWLTFGQGTKLEIK
[1]
  ADCC activity; IC50 (nM): Yes, but insufficient curve fitting

B3: 674J13 Parental: parental anti-CCR7 antibody derived from the hybridoma (antibody, V domains shown)
VH: DVQLQESGPDLVKPSQSLSLTCTVTGYSITSGYSWHWIRQFPGNKLEWMAHIHSSGSTNYNPSLKSRISIIRDTSKNLFFLQLNSVTTEDTATYYCARGGVQAFAYWGQGTLVTVSA
VL: QIVLTQSPAIMSASPGEKVTMTCSASSSVIYMHWYQQKSGTSPKRWIYDTSKLASGVPARFSGSGSGTSYSLTISSMEAEDAATYYCQQWSSNPLTFGAGTTLELK
[2]
  functionality in β-Arrestin assay, antagonistic format: neutral, non-ligand blocking antibody
